Tests used:
Experiment in all cases: holdup assay
Parameters in all cases: key: below the threshold = too weak to quantify, mostly under pKd 3.1 to 4
LDB3, O75112 = target: LDB3, O75112
MPDZ_5, O75970 = target: T1, MPDZ_5, O75970
T1 sequence (O75970 695-796, limits assumed, looked up): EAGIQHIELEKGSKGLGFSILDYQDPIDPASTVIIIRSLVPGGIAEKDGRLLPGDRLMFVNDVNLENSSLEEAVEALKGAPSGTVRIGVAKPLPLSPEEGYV

AHNAK1, Q09666 = target: AHNAK1, Q09666
NHERF3_3, Q5T2W1 = target: T2, NHERF3_3, Q5T2W1
T2 sequence (Q5T2W1 238-333, limits assumed, looked up): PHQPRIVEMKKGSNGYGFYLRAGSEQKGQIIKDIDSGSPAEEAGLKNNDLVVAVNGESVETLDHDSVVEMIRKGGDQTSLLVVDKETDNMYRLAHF

MPDZ_12, O75970 = target: T3, MPDZ_12, O75970
T3 sequence (O75970 1857-1958, limits assumed, looked up): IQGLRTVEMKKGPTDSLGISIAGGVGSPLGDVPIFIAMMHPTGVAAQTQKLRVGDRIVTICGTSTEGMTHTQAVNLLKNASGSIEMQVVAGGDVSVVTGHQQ

LIN7B, Q9HAP6 = target: T4, LIN7B, Q9HAP6
T4 sequence (Q9HAP6 88-185, limits assumed, looked up): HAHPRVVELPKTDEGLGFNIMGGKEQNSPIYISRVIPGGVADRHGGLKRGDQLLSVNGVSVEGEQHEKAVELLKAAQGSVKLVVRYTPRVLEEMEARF

DLG1_3, Q12959 = target: DLG1_3, Q12959
Sequence of DLG1_3, Q12959 (Q12959 457-571): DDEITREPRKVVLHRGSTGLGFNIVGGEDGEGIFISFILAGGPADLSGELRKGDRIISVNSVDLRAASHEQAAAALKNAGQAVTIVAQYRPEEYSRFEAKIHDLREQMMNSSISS

DLG3_2, Q92796 = target: T5, DLG3_2, Q92796
T5 sequence (Q92796 221-321, limits assumed, looked up): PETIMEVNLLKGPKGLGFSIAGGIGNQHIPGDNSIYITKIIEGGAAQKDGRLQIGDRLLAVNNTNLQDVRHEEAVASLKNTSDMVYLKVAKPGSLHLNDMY

SCRIB_1, Q14160 = target: SCRIB_1, Q14160
Sequence of SCRIB_1, Q14160 (Q14160 718-814): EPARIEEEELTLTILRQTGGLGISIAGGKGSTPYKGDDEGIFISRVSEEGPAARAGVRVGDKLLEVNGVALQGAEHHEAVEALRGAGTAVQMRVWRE

NHERF4_2, Q86UT5 = target: NHERF4_2, Q86UT5
Sequence of NHERF4_2, Q86UT5 (Q86UT5 220-308): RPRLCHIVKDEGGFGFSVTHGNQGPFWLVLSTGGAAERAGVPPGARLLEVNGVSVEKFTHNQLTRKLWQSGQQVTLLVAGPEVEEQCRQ

Inadl_5, Q8NI35 = target: Inadl_5, Q8NI35
Sequence of Inadl_5, Q8NI35 (Q8NI35 673-780): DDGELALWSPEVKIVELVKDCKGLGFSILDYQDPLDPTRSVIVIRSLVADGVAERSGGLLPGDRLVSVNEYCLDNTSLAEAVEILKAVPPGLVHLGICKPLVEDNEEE

SIPA1L2, Q9P2F8 = target: T6, SIPA1L2, Q9P2F8
T6 sequence (Q9P2F8 945-1036, limits assumed, looked up): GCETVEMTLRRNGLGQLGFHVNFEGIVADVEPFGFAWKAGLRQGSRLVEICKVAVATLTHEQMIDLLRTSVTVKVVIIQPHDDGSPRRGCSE

DFNB31_1, Q9P202 = target: T7, DFNB31_1, Q9P202
T7 sequence (Q9P202 135-233, limits assumed, looked up): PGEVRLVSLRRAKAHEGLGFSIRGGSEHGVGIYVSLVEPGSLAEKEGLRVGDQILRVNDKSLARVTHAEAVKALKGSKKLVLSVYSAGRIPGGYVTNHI

PDZRN3_1, Q9UPQ7 = target: T8, PDZRN3_1, Q9UPQ7
T8 sequence (Q9UPQ7 244-349, limits assumed, looked up): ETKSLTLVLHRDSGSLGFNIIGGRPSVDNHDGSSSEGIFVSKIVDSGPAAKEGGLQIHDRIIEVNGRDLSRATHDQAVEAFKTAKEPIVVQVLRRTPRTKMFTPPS

SNTG2, Q9NY99 = target: T9, SNTG2, Q9NY99
T9 sequence (Q9NY99 68-166, limits assumed, looked up): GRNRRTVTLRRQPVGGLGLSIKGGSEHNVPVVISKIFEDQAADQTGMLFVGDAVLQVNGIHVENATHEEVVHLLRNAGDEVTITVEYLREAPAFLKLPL

TJP1_3, Q07157 = target: TJP1_3, Q07157
Sequence of TJP1_3, Q07157 (Q07157 416-512): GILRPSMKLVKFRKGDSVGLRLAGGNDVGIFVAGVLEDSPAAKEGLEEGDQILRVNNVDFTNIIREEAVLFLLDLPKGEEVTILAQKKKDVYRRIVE

SNX27, Q96L92 = target: SNX27, Q96L92
RAPGEF6, Q8TEU7 = target: T10, RAPGEF6, Q8TEU7
T10 sequence (Q8TEU7 525-625, limits assumed, looked up): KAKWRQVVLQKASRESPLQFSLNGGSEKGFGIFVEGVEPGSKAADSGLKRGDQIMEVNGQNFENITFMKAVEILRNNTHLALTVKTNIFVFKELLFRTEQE

Inadl_3, Q8NI35 = target: Inadl_3, Q8NI35
Sequence of Inadl_3, Q8NI35 (Q8NI35 359-469): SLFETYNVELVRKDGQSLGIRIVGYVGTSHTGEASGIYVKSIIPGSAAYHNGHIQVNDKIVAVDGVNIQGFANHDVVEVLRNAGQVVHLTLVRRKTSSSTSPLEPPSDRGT

DLG3_1, Q92796 = target: T11, DLG3_1, Q92796
T11 sequence (Q92796 125-227, limits assumed, looked up): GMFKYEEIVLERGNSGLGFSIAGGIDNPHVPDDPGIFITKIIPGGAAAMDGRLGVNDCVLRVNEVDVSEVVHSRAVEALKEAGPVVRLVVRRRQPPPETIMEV

GRID2IP_1, A4D2P6 = target: GRID2IP_1, A4D2P6
Sequence of GRID2IP_1, A4D2P6 (A4D2P6 1-87): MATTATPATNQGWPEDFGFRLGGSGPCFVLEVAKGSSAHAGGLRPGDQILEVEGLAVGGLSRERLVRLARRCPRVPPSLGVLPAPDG

NHERF4_4, Q86UT5 = target: NHERF4_4, Q86UT5
Sequence of NHERF4_4, Q86UT5 (Q86UT5 464-550): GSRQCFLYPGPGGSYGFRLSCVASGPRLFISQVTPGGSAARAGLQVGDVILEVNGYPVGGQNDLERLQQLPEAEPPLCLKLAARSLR

MPDZ_10, O75970 = target: T12, MPDZ_10, O75970
T12 sequence (O75970 1624-1722, limits assumed, looked up): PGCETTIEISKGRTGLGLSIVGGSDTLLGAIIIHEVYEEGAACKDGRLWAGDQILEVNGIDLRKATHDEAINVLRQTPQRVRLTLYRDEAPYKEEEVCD

FRMPD2_3, Q68DX3 = target: FRMPD2_3, Q68DX3
Sequence of FRMPD2_3, Q68DX3 (Q68DX3 1073-1166): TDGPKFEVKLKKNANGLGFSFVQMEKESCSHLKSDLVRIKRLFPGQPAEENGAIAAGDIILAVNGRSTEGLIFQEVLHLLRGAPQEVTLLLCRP

[1] = plain residues with an end cap or a label only (N-terminal biotin on a linker: ado-ado)
[2] = plain residues with an end cap or a label only (N-terminal biotin on a linker: ahx)
[3] = plain residues with an end cap or a label only (N-terminal biotin on a linker: (peg)3)

Sequence of LDB3, O75112 (O75112 1-94): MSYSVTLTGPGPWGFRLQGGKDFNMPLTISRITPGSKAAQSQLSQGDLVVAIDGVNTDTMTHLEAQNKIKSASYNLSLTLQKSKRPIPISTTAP
Sequence of AHNAK1, Q09666 (Q09666 4-100): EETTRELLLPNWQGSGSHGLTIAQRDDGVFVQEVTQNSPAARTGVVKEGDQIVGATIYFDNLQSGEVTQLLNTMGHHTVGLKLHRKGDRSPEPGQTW

With NISYRRESAI [KCNJ4, P48050] the pKd (LDB3, O75112; [1]) was “below the threshold”, the pKd (MPDZ_5, O75970; [1]) was “below the threshold” and the pKd (AHNAK1, Q09666; [1]) was “below the threshold”. The pKd (NHERF3_3, Q5T2W1; [1]) was “below the threshold”, the pKd (MPDZ_12, O75970; [1]) was “below the threshold” and the pKd (LIN7B, Q9HAP6; [1]) was 3.74. The pKd (DLG1_3, Q12959; [1]) was 3.91, the pKd (DLG3_2, Q92796; [1]) was 4.35 and the pKd (SCRIB_1, Q14160; [1]) was 3.89. The pKd (NHERF4_2, Q86UT5; [1]) was “below the threshold”, the pKd (Inadl_5, Q8NI35; [1]) was “below the threshold” and the pKd (SIPA1L2, Q9P2F8; [1]) was “below the threshold”. For the same binder, the pKd (DFNB31_1, Q9P202; [1]) was 4.29, the pKd (PDZRN3_1, Q9UPQ7; [1]) was 4.43 and the pKd (SNTG2, Q9NY99; [1]) was “below the threshold”. For the same binder, the pKd (TJP1_3, Q07157; [1]) was “below the threshold”, the pKd (SNX27, Q96L92; [1]) was “below the threshold” and the pKd (RAPGEF6, Q8TEU7; [1]) was “below the threshold”. The pKd (Inadl_3, Q8NI35; [1]) was “below the threshold”, the pKd (DLG3_1, Q92796; [1]) was “below the threshold” and the pKd (GRID2IP_1, A4D2P6; [1]) was “below the threshold”. The pKd (NHERF4_4, Q86UT5; [1]) was “below the threshold”, the pKd (MPDZ_10, O75970; [1]) was “below the threshold” and the pKd (FRMPD2_3, Q68DX3; [1]) was “below the threshold”.

With QDEKVKESYV [ABCA1, O95477] the pKd (LDB3, O75112; [2]) was 3.53, the pKd (MPDZ_5, O75970; [2]) was 3.63 and the pKd (AHNAK1, Q09666; [2]) was “below the threshold”. For the same binder, the pKd (NHERF3_3, Q5T2W1; [2]) was 3.51, the pKd (MPDZ_12, O75970; [2]) was “below the threshold” and the pKd (LIN7B, Q9HAP6; [2]) was 4.15. The pKd (DLG1_3, Q12959; [2]) was 3.76, the pKd (DLG3_2, Q92796; [2]) was 4.92 and the pKd (SCRIB_1, Q14160; [2]) was 4.15. For the same binder, the pKd (NHERF4_2, Q86UT5; [2]) was “below the threshold”, the pKd (Inadl_5, Q8NI35; [2]) was 3.73 and the pKd (SIPA1L2, Q9P2F8; [2]) was “below the threshold”. It also gave a pKd (DFNB31_1, Q9P202; [2]) of 3.88, a pKd (PDZRN3_1, Q9UPQ7; [2]) of 4.31 and a pKd (SNTG2, Q9NY99; [2]) of 5.06. The pKd (TJP1_3, Q07157; [2]) was “below the threshold”, the pKd (SNX27, Q96L92; [2]) was 5.63 and the pKd (RAPGEF6, Q8TEU7; [2]) was “below the threshold”. For the same binder, the pKd (Inadl_3, Q8NI35; [2]) was 3.75, the pKd (DLG3_1, Q92796; [2]) was 4.29 and the pKd (GRID2IP_1, A4D2P6; [2]) was “below the threshold”. For the same binder, the pKd (NHERF4_4, Q86UT5; [2]) was “below the threshold”, the pKd (MPDZ_10, O75970; [2]) was 4.29 and the pKd (FRMPD2_3, Q68DX3; [2]) was 3.9.

With RYEDTTLVEDTVL [WNV-NS5, Q9Q6P4] the pKd (LDB3, O75112; [3]) was “below the threshold”, the pKd (MPDZ_5, O75970; [3]) was “below the threshold” and the pKd (AHNAK1, Q09666; [3]) was “below the threshold”. The pKd (NHERF3_3, Q5T2W1; [3]) was “below the threshold”, the pKd (MPDZ_12, O75970; [3]) was “below the threshold” and the pKd (LIN7B, Q9HAP6; [3]) was “below the threshold”. For the same binder, the pKd (DLG1_3, Q12959; [3]) was 3.51, the pKd (DLG3_2, Q92796; [3]) was 3.76 and the pKd (SCRIB_1, Q14160; [3]) was 3.95. For the same binder, the pKd (NHERF4_2, Q86UT5; [3]) was “below the threshold”, the pKd (Inadl_5, Q8NI35; [3]) was “below the threshold” and the pKd (SIPA1L2, Q9P2F8; [3]) was “below the threshold”. The pKd (DFNB31_1, Q9P202; [3]) was 3.83, the pKd (PDZRN3_1, Q9UPQ7; [3]) was 3.61 and the pKd (SNTG2, Q9NY99; [3]) was 4. For the same binder, the pKd (TJP1_3, Q07157; [3]) was “below the threshold”, the pKd (SNX27, Q96L92; [3]) was 5.38 and the pKd (RAPGEF6, Q8TEU7; [3]) was “below the threshold”. For the same binder, the pKd (Inadl_3, Q8NI35; [3]) was 3.82, the pKd (DLG3_1, Q92796; [3]) was “below the threshold” and the pKd (GRID2IP_1, A4D2P6; [3]) was “below the threshold”. The pKd (NHERF4_4, Q86UT5; [3]) was “below the threshold”, the pKd (MPDZ_10, O75970; [3]) was “below the threshold” and the pKd (FRMPD2_3, Q68DX3; [3]) was “below the threshold”.

For QPRTWLQSPV [RTKN, Q9BST9], the pKd (LDB3, O75112; [2]) was “below the threshold”, the pKd (MPDZ_5, O75970; [2]) was “below the threshold” and the pKd (AHNAK1, Q09666; [2]) was “below the threshold”. The pKd (NHERF3_3, Q5T2W1; [2]) was “below the threshold”, the pKd (MPDZ_12, O75970; [2]) was “below the threshold” and the pKd (LIN7B, Q9HAP6; [2]) was “below the threshold”. The pKd (DLG1_3, Q12959; [2]) was 4.11, the pKd (DLG3_2, Q92796; [2]) was 4.04 and the pKd (SCRIB_1, Q14160; [2]) was 3.69. The pKd (NHERF4_2, Q86UT5; [2]) was “below the threshold”, the pKd (Inadl_5, Q8NI35; [2]) was “below the threshold” and the pKd (SIPA1L2, Q9P2F8; [2]) was “below the threshold”. For the same binder, the pKd (DFNB31_1, Q9P202; [2]) was 4.35, the pKd (PDZRN3_1, Q9UPQ7; [2]) was “below the threshold” and the pKd (SNTG2, Q9NY99; [2]) was “below the threshold”. For the same binder, the pKd (TJP1_3, Q07157; [2]) was “below the threshold”, the pKd (SNX27, Q96L92; [2]) was 4.31 and the pKd (RAPGEF6, Q8TEU7; [2]) was “below the threshold”. For the same binder, the pKd (Inadl_3, Q8NI35; [2]) was “below the threshold”, the pKd (DLG3_1, Q92796; [2]) was “below the threshold” and the pKd (GRID2IP_1, A4D2P6; [2]) was “below the threshold”. For the same binder, the pKd (NHERF4_4, Q86UT5; [2]) was “below the threshold”, the pKd (MPDZ_10, O75970; [2]) was 3.97 and the pKd (FRMPD2_3, Q68DX3; [2]) was “below the threshold”.

— article PMC9482650, “Quantitative fragmentomics allow affinity mapping of interactomes” (Nature Communications, 2022)
